Assay results from paper PMC3796514.

How the values were obtained:
[1] = biological target: HapRV2G (wild type functional HapR, glycine at position 39), N-terminal 6X His fusion (Vibrio cholerae); assay: SEC
[2] = biological target: HapRV2G-E117K (HapR natural variant with lysine at position 117 in the dimerization domain), N-terminal 6X His fusion (Vibrio cholerae); assay: SEC

| Substance | stoichiometry N [1] | stoichiometry N [2] |
| --- | --- | --- |
| HapRV2G (wild type functional HapR, glycine at position 39), N-terminal 6X His fusion (natural protein) | 2 | – |
| HapRV2G-E117K (HapR natural variant with lysine at position 117 in the dimerization domain), N-terminal 6X His fusion (natural protein) | – | 2 |
